Results taken from patent publication US20080139466A1.

Biological target: human TSH receptor on stably transfected CHO cells (JP09 cells) (human) (UniProt P16473)
Assay: cell-based or functional assay

UniProt P16473, sequence (P16473 21-764): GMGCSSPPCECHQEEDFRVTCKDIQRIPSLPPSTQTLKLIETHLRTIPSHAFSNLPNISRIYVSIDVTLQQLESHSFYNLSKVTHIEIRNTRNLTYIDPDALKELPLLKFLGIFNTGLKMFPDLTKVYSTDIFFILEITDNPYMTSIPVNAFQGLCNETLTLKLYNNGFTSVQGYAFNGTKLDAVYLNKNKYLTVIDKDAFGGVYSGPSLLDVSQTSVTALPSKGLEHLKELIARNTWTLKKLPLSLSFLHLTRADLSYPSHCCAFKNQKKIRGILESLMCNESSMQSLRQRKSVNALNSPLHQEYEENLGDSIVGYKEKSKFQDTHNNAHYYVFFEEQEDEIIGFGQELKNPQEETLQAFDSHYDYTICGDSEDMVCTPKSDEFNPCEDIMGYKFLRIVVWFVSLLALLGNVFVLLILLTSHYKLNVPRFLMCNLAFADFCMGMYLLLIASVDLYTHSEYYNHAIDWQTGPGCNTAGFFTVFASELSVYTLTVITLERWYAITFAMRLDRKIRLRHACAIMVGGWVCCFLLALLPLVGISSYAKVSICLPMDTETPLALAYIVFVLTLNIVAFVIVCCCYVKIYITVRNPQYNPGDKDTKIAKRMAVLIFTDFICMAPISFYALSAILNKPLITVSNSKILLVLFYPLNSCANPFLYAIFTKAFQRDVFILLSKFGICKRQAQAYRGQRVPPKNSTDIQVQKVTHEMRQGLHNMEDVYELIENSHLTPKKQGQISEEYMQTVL

“feline thyrotropin (fTSH) α/β heterodimer (from UniProt Q52R91 25-120; Q52R90 21-132) (ligand)” was tested, and the cAMP production (cAMP released into medium, RIA) by JP09 cells was 25 pmol/mL.
Work on “feline thyrotropin yoked polypeptide (β-subunit-CTP-α-subunit) (ligand)” yielded a cAMP production (cAMP released into medium, RIA) by JP09 cells of 70 pmol/mL.
